Experimental findings from patent US20150023979A1 (VALDOSPAN, published 2015) are described below.

By kon is commonly meant a measure of how fast the partners come together.

For test [1], the target named is T1, HPV35 E7 protein, recombinant (His-TEV-E7 fusion from E. coli) (Human Papilloma Virus type 35 (HPV35), UniProt P27230 1-99, CKII phosphorylation of the consensus site serines in the antigen preparation of Example 2).
T1 construct: mature; also called VE7_HPV35; not shown: N-terminal 6x Histidine tag and TEV cleavage site of the vector
T1 sequence: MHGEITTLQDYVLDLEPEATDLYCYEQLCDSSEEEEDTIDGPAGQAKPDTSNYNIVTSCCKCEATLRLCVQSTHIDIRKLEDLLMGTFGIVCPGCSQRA
Put plainly: ELISA and dot-blot, semiquantitative crossreactivity (+ weak interaction).

Test [2] deals with T2, HPV11 E7 protein (low risk type), recombinant (His-TEV-E7 fusion from E. coli) (Human Papilloma Virus type 11 (HPV11), UniProt P04020 1-98).
T2 construct: mature; also called VE7_HPV11; not shown: N-terminal 6x Histidine tag and TEV cleavage site of the vector
T2 sequence: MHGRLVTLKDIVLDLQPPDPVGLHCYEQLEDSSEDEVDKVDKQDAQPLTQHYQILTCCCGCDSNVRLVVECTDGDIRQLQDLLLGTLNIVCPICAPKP
Put plainly: ELISA and dot-blot. (In an ELISA, binding on a coated surface is turned into a signal by an enzyme label.)

In test [3] the target is T3, HPV5 E7 protein (beta-papillomavirus), recombinant (His-TEV-E7 fusion from E. coli) (Human Papilloma Virus type 5 (HPV5), UniProt P06932 1-103).
T3 construct: mature; also called VE7_HPV05; not shown: N-terminal 6x Histidine tag and TEV cleavage site of the vector
T3 sequence: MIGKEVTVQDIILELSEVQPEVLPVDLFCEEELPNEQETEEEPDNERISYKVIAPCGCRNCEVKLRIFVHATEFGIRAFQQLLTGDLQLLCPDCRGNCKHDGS
Description: ELISA and dot-blot.

For test [4], the target named is T4, HPV6 E7 protein (low risk type), recombinant (His-TEV-E7 fusion from E. coli) (Human Papilloma Virus type 6 (HPV6), UniProt Q84292 1-98).
T4 construct: mature; the only HPV6 entry in the list of constructs is VE7_HPV6A; also called VE7_HPV6A; not shown: N-terminal 6x Histidine tag and TEV cleavage site of the vector
T4 sequence: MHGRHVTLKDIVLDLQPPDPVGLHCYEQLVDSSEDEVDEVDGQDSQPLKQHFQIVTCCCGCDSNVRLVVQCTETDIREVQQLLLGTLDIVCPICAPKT
Put plainly: ELISA and dot-blot.

Test [5] has as its target T5, HPV38 E7 protein (beta-papillomavirus), recombinant (His-TEV-E7 fusion from E. coli) (Human Papilloma Virus type 38 (HPV38), UniProt Q80908 1-100).
T5 construct: mature; also called HPVE7 38; VE7_HPV38; not shown: N-terminal 6x Histidine tag and TEV cleavage site of the vector
T5 sequence: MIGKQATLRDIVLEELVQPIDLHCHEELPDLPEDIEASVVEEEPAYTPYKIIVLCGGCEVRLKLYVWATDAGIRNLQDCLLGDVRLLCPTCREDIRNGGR
Put plainly: ELISA and dot-blot.

In test [6] the target is T6, HPV52 E7 protein, recombinant (His-TEV-E7 fusion from E. coli) (Human Papilloma Virus type 52 (HPV52), UniProt P36831 1-99, CKII phosphorylation of the consensus site serines in the antigen preparation of Example 2).
T6 construct: mature; also called VE7_HPV52; not shown: N-terminal 6x Histidine tag and TEV cleavage site of the vector
T6 sequence: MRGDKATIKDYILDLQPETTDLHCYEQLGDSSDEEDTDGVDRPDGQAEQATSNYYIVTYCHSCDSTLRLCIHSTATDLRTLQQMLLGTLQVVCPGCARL
Put plainly: ELISA and dot-blot, semiquantitative crossreactivity (++ strong positive).

The target in test [7] is T7, HPV31 E7 protein, recombinant (His-TEV-E7 fusion from E. coli) (Human Papilloma Virus type 31 (HPV31), UniProt P17387 1-98, CKII phosphorylation of the consensus site serines in the antigen preparation of Example 2).
T7 construct: mature; also called VE7_HPV31; not shown: N-terminal 6x Histidine tag and TEV cleavage site of the vector
T7 sequence: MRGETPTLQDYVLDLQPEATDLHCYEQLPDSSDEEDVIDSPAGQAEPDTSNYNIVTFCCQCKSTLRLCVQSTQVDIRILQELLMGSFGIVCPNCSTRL
The description is as above.

The target of test [8] is T8, HPV33 E7 protein, recombinant (His-TEV-E7 fusion from E. coli) (Human Papilloma Virus type 33 (HPV33), UniProt P06429 1-97, CKII phosphorylation of the consensus site serines in the antigen preparation of Example 2; biotin on primary amines in the SPR assay).
T8 construct: mature; also called VE7_HPV33; not shown: N-terminal 6x Histidine tag and TEV cleavage site of the vector
T8 sequence: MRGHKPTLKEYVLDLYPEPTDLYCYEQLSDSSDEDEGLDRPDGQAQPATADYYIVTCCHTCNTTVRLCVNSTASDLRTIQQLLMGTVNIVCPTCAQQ
The description is as above.

Test [9] concerns the target T9, HPV56 E7 protein, recombinant (His-TEV-E7 fusion from E. coli) (Human Papilloma Virus type 56 (HPV56), UniProt P36833 1-105, CKII phosphorylation of the consensus site serines in the antigen preparation of Example 2).
T9 construct: mature; also called VE7_HPV56; not shown: N-terminal 6x Histidine tag and TEV cleavage site of the vector
T9 sequence: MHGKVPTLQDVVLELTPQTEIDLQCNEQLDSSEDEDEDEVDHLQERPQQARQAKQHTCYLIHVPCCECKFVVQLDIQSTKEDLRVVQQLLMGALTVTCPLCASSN
Put plainly: ELISA and dot-blot, semiquantitative crossreactivity.

Test [10] concerns the target T10, HPV16 E7 protein, recombinant (His-TEV-E7 fusion from E. coli) (Human Papilloma Virus type 16 (HPV16), UniProt P03129 1-98, CKII phosphoserines at E7 S31 and S32 (chain 1 pos 49 and 50) in the antigen preparation of Example 2, written S; biotin on primary amines (Sulfo-NHS-LC Biotin) in the SPR assay.).
T10 construct: also called VE7_HPV16
T10 sequence: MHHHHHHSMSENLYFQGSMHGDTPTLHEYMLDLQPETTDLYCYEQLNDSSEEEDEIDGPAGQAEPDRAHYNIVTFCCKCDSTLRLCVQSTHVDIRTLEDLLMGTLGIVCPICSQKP
Description: SPR (BIAcore X100), biotin-E7 on streptavidin SA chip, antibody as analyte, bivalent analyte fit, 25 C. A general note: SPR reads the build-up and loss of mass on a sensor chip optically.

B1: ACAB161 (antibody, IgG2a, V domains shown)
VH: EVMLVESGGGLVKPGGSLKLSCAASGFTFSRYTMSWVRQTPEKRLEWVATISSGGTNTNYTDSVKGRFTISRDNAKNNLYLQMSSLRSEDTALYYCTRGVRRGDGYAMDYWGQGTSVTVSS
VL: DIVLTQAAPSVPVTPGESVSISCRSTKSLLHSNGNTYLYWFLQRPGQSPQALIYRTSNLASGVPDRFSGSGSGTAFTLRISRVEAEDVGVYYCMQHLEYPLTFGAGTKLELKR
notes: the printed entries run on into the first residues of the constant domains; also called HPV16E7 IgG2a antibody ACAB161
B1: the binding result in test [1] is recorded as “binds”; in test [2], “no binding”; in test [3], “no binding”; in test [4], “no binding”; in test [5], “no binding”; in [6], “binds”. The binding result in test [7] is reported as “binds”; in [8] it was “binds”; in test [9] it was “no binding”. Further, the Kd in test [10] was found to be 3.38 nM. The kon in test [10] came to 58400 M⁻¹ s⁻¹.

B2: ACAB452 (antibody, IgG1, V domains shown)
VH: DVQLQESGPGLVKPSQSLSLTCTVTGYSITSDYAWNWIRQFPGNKLEWVGYITYSGSTNYNPSLKSRISITRDTSKNQFFLQFNSVTSEDTATYFCARSWFAYWGQGTLVTVSS
VL: DIVMTQTPLSLPVSLGDQASISCRSSQSLVHSNGNTYLHWFLQKPGQSPKLLIYKVSNRFSGVPDRFSGSGSGTDFTLKISRVEAEDLGVYFCLQSAHVPLTFGAGTKLELTR
notes: also called HPV45E7 IgG1 antibody ACAB452
As to B2, the binding result is recorded as “binds” in test [1]; “no binding” in test [2]; “no binding” in [3]; “no binding” in test [4]; “no binding” in test [5].

B3: ACAB164 (antibody, V domains shown)
VH: EVQLQQSGLALVQPGASVKISCRTSGYTFTEYTLHWVKQSHGKSLEWIGGINPNNGSPKYNQKFKGKATLTVDKSSSTAYMELRSLTSEDSAVYYCARLDINSFFDYWGQGTTLTVSS
VL: DVVMTQSPLSLPVSLGDQASISCRSSQSLVHSNGNTYLQWYLQKPGQSPKLLIYKLSNRFSGVPDRFSGSGSGTDFTLKISRVEAEDLGVYSCSQTTHVPPTFGGGTKLEIKR
notes: the printed entries run on into the first residues of the constant domains; also called HPV16E7 IgG2a antibody ACAB164
As for B3, the binding result in [2] was “no binding”; in test [3], “no binding”; in test [4] it was “no binding”; in [5] it was “no binding”; in test [6], “binds”; in test [7], “binds”. Further, the binding result in [8] is reported as “binds”; in test [9] it was “no binding”. For the same molecule, the Kd in test [10] turned out to be 0.052 nM. In test [10], the association rate constant (kon) is 261000 M⁻¹ s⁻¹.
